Laboratory results published in the supplement of paper PMC11316812.
± gives the standard deviation of the averaged measurements.

How the values were obtained:
hTERT-HMEC = test: percentage of EdU-negative (G0-arrested) nuclei per well, 72 h; higher = more G0 arrest; details: reference: sequence is the full UniProt precursor, the tested protein was the secreted form or ectodomain
MCF7 = test: as above; details: reference: sequence is the full UniProt precursor, the tested protein was the secreted form or ectodomain
[1] = protein concentration 0.01525 µM
[2] = protein concentration 0.1525 µM
[3] = protein concentration 0.0225 µM
[4] = protein concentration 0.0055 µM
[5] = protein concentration 0.01975 µM
[6] = protein concentration 0.1975 µM
[7] = protein concentration 0.03125 µM
[8] = protein concentration 0.3125 µM
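Also: secreted proteins added to cultured cells, EdU pulse at the end, nuclei found by Hoechst imaging, EdU status from nuclear versus surrounding ring intensity ratio, PBS as neutral control.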

Sequence: MWATLPLLCAGAWLLGVPVCGAAELCVNSLEKFHFKSWMSKHRKTYSTEEYHHRLQTFASNWRKINAHNNGNHTFKMALNQFSDMSFAEIKHKYLWSEPQNCSATKSNYLRGTGPYPPSVDWRKKGNFVSPVKNQGACGSCWTFSTTGALESAIAIATGKMLSLAEQQLVDCAQDFNNHGCQGGLPSQAFEYILYNKGIMGEDTYPYQGKDGYCKFQPGKAIGFVKDVANITIYDEEAMVEAVALYNPVSFAFEVTQDFMMYRTGIYSSTSCHKTPDKVNHAVLAVGYGEKNGIPYWIVKNSWGPQWGMNGYFLIERGKNMCGLAACASYPIPLV
- percentage of EdU-negative (hTERT-HMEC; [1]): 5.31 ± 0.13%
- percentage of EdU-negative (hTERT-HMEC; [2]): 8.87 ± 0.59%
- percentage of EdU-negative (MCF7; [1]): 27 ± 2.4%
- percentage of EdU-negative (MCF7; [2]): 29.3 ± 4.1%

Sequence: MWCIVLFSLLAWVYAEPTMYGEILSPNYPQAYPSEVEKSWDIEVPEGYGIHLYFTHLDIELSENCAYDSVQIISGDTEEGRLCGQRSSNNPHSPIVEEFQVPYNKLQVIFKSDFSNEERFTGFAAYYVATDINECTDFVDVPCSHFCNNFIGGYFCSCPPEYFLHDDMKNCGVNCSGDVFTALIGEIASPNYPKPYPENSRCEYQIRLEKGFQVVVTLRREDFDVEAADSAGNCLDSLVFVAGDRQFGPYCGHGFPGPLNIETKSNALDIIFQTDLTGQKKGWKLRYHGDPMPCPKEDTPNSVWEPAKAKYVFRDVVQITCLDGFEVVEGRVGATSFYSTCQSNGKWSNSKLKCQPVDCGIPESIENGKVEDPESTLFGSVIRYTCEEPYYYMENGGGGEYHCAGNGSWVNEVLGPELPKCVPVCGVPREPFEEKQRIIGGSDADIKNFPWQVFFDNPWAGGALINEYWVLTAAHVVEGNREPTMYVGSTSVQTSRLAKSKMLTPEHVFIHPGWKLLEVPEGRTNFDNDIALVRLKDPVKMGPTVSPICLPGTSSDYNLMDGDLGLISGWGRTEKRDRAVRLKAARLPVAPLRKCKEVKVEKPTADAEAYVFTPNMICAGGEKGMDSCKGDSGGAFAVQDPNDKTKFYAAGLVSWGPQCGTYGLYTRVKNYVDWIMKTMQENSTPRED
- percentage of EdU-negative (hTERT-HMEC; [3]): 4.97 ± 0.22%
- percentage of EdU-negative (hTERT-HMEC; protein concentration 0.225 µM): 6.85 ± 3.7%
- percentage of EdU-negative (MCF7; [3]): 23.9 ± 1.2%
- percentage of EdU-negative (MCF7; protein concentration 0.225 µM): 24.2 ± 1.2%

Sequence: MWDLVLSIALSVGCTGAVPLIQSRIVGGWECEKHSQPWQVAVYSHGWAHCGGVLVHPQWVLTAAHCLKKNSQVWLGRHNLFEPEDTGQRVPVSHSFPHPLYNMSLLKHQSLRPDEDSSHDLMLLRLSEPAKITDVVKVLGLPTQEPALGTTCYASGWGSIEPEEFLRPRSLQCVSLHLLSNDMCARAYSEKVTEFMLCAGLWTGGKDTCGGDSGGPLVCNGVLQGITSWGPEPCALPEKPAVYTKVVHYRKWIKDTIAANP
- percentage of EdU-negative (hTERT-HMEC; [3]): 4.38 ± 0.36%
- percentage of EdU-negative (hTERT-HMEC; protein concentration 0.225 µM): 5.65 ± 0.28%
- percentage of EdU-negative (MCF7; [3]): 23.8 ± 1.7%
- percentage of EdU-negative (MCF7; protein concentration 0.225 µM): 24.8 ± 1.2%

Sequence: MWGLKVLLLPVVSFALYPEEILDTHWELWKKTHRKQYNNKVDEISRRLIWEKNLKYISIHNLEASLGVHTYELAMNHLGDMTSEEVVQKMTGLKVPLSHSRSNDTLYIPEWEGRAPDSVDYRKKGYVTPVKNQGQCGSCWAFSSVGALEGQLKKKTGKLLNLSPQNLVDCVSENDGCGGGYMTNAFQYVQKNRGIDSEDAYPYVGQEESCMYNPTGKAAKCRGYREIPEGNEKALKRAVARVGPVSVAIDASLTSFQFYSKGVYYDESCNSDNLNHAVLAVGYGIQKGNKHWIIKNSWGENWGNKGYILMARNKNNACGIANLASFPKM
- percentage of EdU-negative (hTERT-HMEC; [4]): 4.75 ± 0.94%
- percentage of EdU-negative (hTERT-HMEC; protein concentration 0.055 µM): 4.78 ± 0.37%
- percentage of EdU-negative (MCF7; [4]): 25.3 ± 2.9%
- percentage of EdU-negative (MCF7; protein concentration 0.055 µM): 27.4 ± 1.2%

Sequence: MWGLLLALAAFAPAVGPALGAPRNSVLGLAQPGTTKVPGSTPALHSSPAQPPAETANGTSEQHVRIRVIKKKKVIMKKRKKLTLTRPTPLVTAGPLVTPTPAGTLDPAEKQETGCPPLGLESLRVSDSRLEASSSQSFGLGPHRGRLNIQSGLEDGDLYDGAWCAEEQDADPWFQVDAGHPTRFSGVITQGRNSVWRYDWVTSYKVQFSNDSRTWWGSRNHSSGMDAVFPANSDPETPVLNLLPEPQVARFIRLLPQTWLQGGAPCLRAEILACPVSDPNDLFLEAPASGSSDPLDFQHHNYKAMRKLMKQVQEQCPNITRIYSIGKSYQGLKLYVMEMSDKPGEHELGEPEVRYVAGMHGNEALGRELLLLLMQFLCHEFLRGNPRVTRLLSEMRIHLLPSMNPDGYEIAYHRGSELVGWAEGRWNNQSIDLNHNFADLNTPLWEAQDDGKVPHIVPNHHLPLPTYYTLPNATVAPETRAVIKWMKRIPFVLSANLHGGELVVSYPFDMTRTPWAARELTPTPDDAVFRWLSTVYAGSNLAMQDTSRRPCHSQDFSVHGNIINGADWHTVPGSMNDFSYLHTNCFEVTVELSCDKFPHENELPQEWENNKDALLTYLEQVRMGIAGVVRDKDTELGIADAVIAVDGINHDVTTAWGGDYWRLLTPGDYMVTASAEGYHSVTRNCRVTFEEGPFPCNFVLTKTPKQRLRELLAAGAKVPPDLRRRLERLRGQKD [Q96SM3]
- percentage of EdU-negative (hTERT-HMEC; [5]): 5.64 ± 1.2%
- percentage of EdU-negative (hTERT-HMEC; [6]): 5.93 ± 0.071%
- percentage of EdU-negative (MCF7; [5]): 26.1 ± 3.2%
- percentage of EdU-negative (MCF7; [6]): 28.5 ± 1.1%

Sequence: MWKRWLALALALVAVAWVRAEEELRSKSKICANVFCGAGRECAVTEKGEPTCLCIEQCKPHKRPVCGSNGKTYLNHCELHRDACLTGSKIQVDYDGHCKEKKSVSPSASPVVCYQSNRDELRRRIIQWLEAEIIPDGWFSKGSNYSEILDKYFKNFDNGDSRLDSSEFLKFVEQNETAINITTYPDQENNKLLRGLCVDALIELSDENADWKLSFQEFLKCLNPSFNPPEKKCALEDETYADGAETEVDCNRCVCACGNWVCTAMTCDGKNQKGAQTQTEEEMTRYVQELQKHQETAEKTKRVSTKEI
- percentage of EdU-negative (hTERT-HMEC; [7]): 4.68 ± 0.16%
- percentage of EdU-negative (hTERT-HMEC; [8]): 5.53 ± 0.92%
- percentage of EdU-negative (MCF7; [7]): 25.7 ± 0.72%
- percentage of EdU-negative (MCF7; [8]): 26.2 ± 3.6%
